Test results published in article PMC12604781 (PLOS Pathogens, 2025).

Experiments:
pcGAS [1] = format: biochemical, porcine; details: pH 7.5
[2] = target: SUMO-HSV-1 peptide AB (herpes simplex virus type 1 (HSV-1)); experiment: ITC
hcGAS = hcGAS (Homo sapiens? (human), UniProt Q8N884 1-522); experiment: EMSA; no US1; EMSA: 2.5 uM ISD45, DNA:protein molar ratio 1:0 to 1:32, 0.8% agarose, 40 mM Tris-HCl pH 9.2 running buffer, 110 V, ethidium bromide; binding buffer and temperature not stated (protein stock 20 mM Tris-HCl pH 7.5, 150 mM NaCl, 5 mM DTT); details: protein: recombinant; tags: N-terminal Flag, C-terminal HA; His6-SUMO removed; blunt
mcGAS = mcGAS (Mus musculus? (mouse), UniProt Q8C6L5 1-507); experiment: as above; details: protein: recombinant; tags: N-terminal Flag, C-terminal HA; His6-SUMO removed; chain copies: 2; blunt
pcGASNT = target: T1, pcGASNT (Sus scrofa? (porcine), UniProt I3LM39 1-134); experiment: as above; details: protein: recombinant; tags: Flag/HA double tag vector; His6-SUMO; blunt
T1 sequence: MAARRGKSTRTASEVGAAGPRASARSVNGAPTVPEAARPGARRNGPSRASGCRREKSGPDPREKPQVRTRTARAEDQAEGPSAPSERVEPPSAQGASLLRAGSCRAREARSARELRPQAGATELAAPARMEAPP

pcGASCT = target: T2, pcGASCT (Sus scrofa? (porcine), UniProt I3LM39 145-495); experiment: as above; details: protein: recombinant; tags: Flag/HA double tag vector; His6-SUMO; blunt
T2 sequence: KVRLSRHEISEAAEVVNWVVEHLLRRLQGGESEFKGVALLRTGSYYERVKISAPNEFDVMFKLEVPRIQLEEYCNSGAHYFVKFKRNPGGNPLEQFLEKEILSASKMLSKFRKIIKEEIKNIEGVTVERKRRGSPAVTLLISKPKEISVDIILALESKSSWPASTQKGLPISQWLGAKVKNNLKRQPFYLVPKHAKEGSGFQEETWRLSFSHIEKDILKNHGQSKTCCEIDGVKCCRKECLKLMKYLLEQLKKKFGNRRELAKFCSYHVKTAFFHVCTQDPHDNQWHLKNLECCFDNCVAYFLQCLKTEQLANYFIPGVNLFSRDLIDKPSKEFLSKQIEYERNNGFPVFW

pcGAS [3] = target: T3, pcGAS (Sus scrofa? (porcine), UniProt I3LM39 1-495); experiment: as above; details: protein: recombinant; tags: N-terminal Flag, C-terminal HA; His6-SUMO removed; blunt
T3 sequence: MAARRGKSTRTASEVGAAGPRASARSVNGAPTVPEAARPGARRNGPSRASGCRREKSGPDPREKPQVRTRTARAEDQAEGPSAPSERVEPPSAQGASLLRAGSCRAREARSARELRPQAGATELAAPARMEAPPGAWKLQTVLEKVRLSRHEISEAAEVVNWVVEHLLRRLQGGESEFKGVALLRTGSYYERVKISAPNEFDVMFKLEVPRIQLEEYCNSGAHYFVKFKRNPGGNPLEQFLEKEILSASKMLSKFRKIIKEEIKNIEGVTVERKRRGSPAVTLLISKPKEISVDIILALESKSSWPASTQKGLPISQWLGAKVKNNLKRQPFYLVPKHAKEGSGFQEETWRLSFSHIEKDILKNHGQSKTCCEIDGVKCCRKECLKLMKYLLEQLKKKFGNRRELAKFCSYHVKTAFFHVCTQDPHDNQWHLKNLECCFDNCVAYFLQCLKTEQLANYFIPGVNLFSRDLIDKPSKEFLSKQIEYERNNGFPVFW

PRV US1 = target: T4, PRV US1 (pseudorabies virus, UniProt A0AAX7FDV8 1-364); experiment: EMSA; molar ratio 0-16; EMSA: 2.5 uM ISD45, DNA:protein molar ratio 1:0 to 1:32, 0.8% agarose, 40 mM Tris-HCl pH 9.2 running buffer, 110 V, ethidium bromide; binding buffer and temperature not stated (protein stock 20 mM Tris-HCl pH 7.5, 150 mM NaCl, 5 mM DTT); details: protein: recombinant; tags: His6-SUMO removed; blunt
T4 sequence: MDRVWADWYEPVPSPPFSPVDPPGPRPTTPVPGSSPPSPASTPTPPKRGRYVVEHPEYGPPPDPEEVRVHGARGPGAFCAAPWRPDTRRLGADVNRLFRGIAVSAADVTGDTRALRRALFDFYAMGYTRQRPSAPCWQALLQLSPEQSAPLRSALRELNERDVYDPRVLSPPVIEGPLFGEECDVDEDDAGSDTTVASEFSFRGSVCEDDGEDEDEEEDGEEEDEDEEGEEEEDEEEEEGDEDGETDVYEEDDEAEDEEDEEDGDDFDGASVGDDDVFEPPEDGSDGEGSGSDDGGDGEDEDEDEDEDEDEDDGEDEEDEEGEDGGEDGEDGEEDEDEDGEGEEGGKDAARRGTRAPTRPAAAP

Sequence of hcGAS (Q8N884 whole entry): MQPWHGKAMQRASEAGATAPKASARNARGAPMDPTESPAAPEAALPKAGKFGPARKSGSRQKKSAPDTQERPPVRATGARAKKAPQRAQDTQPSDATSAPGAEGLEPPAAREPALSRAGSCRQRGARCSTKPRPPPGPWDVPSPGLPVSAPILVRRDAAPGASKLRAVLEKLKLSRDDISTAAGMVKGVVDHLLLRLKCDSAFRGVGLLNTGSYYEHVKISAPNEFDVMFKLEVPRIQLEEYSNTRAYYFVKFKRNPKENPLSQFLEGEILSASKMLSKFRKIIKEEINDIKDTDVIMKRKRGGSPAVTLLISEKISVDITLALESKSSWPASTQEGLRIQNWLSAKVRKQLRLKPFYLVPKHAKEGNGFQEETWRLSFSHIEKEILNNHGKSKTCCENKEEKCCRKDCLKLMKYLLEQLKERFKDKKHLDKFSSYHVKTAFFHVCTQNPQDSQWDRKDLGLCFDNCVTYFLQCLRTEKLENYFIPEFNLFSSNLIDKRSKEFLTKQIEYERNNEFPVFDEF
Sequence of mcGAS (Q8C6L5 whole entry): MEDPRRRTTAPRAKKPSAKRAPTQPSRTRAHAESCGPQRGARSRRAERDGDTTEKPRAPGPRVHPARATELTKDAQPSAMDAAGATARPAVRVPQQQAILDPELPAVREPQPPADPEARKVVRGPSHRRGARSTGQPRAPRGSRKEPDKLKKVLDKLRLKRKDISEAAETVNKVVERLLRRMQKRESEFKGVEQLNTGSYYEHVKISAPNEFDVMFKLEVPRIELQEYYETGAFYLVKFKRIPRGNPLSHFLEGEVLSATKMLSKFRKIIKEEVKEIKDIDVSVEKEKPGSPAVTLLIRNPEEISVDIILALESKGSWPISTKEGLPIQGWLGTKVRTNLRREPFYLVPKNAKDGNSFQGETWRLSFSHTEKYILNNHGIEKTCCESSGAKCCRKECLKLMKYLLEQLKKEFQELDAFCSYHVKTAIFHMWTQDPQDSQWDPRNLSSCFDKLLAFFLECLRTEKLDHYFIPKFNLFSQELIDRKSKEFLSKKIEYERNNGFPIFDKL

## AWKLQT [random peptide]
pcGAS [1]
  effect on cGAS enzymatic activity / cGAMP synthesis: neither peptide A nor peptide B, nor the random peptide inhibited cGAMP synthesis

## pcGAS^CT (C-terminus, catalytic domain of porcine cGAS) (domain or fragment)
[2]
  Kd: 2.85 µM

## hcGAS^CT (C-terminus, catalytic domain of human cGAS) (domain or fragment)
[2]
  Kd: 15.7 µM

B1: ISD45 (dsDNA)
DNA 1: TACAGATCTACTAGTGATCTATGACTGATCTGTACATGATCTACA
DNA 2: TGTAGATCATGTACAGATCAGTCATAGATCACTAGTAGATCTGTA
hcGAS
  binding result: binds
mcGAS
  binding result: binds
pcGASNT
  binding result: binds
pcGASCT
  binding result: binds
pcGAS [3]
  binding result: binds
PRV US1
  binding result: no binding
